From US11834499 (University of California, dated 2023)

B1: Ab 400 (antibody, V domains shown)
VH: QVQLKESGPGLVAPSQSLSITCTVSGFSLNSYGVSWVRQPPGKGLEWLGVIWGDGSTNYHSALKSRLNINKDKSKSQVFLKLNSLQTDDTATYYCARPTRGNAMDYWGQGTSVTVSS
VL: DVVMTQSPSSLTVTAGEKVTMNCKSSQSLLNSGNQRSYLTWYQQKPGQPPKLLIYWASTRESGAPDRFTGSGSGADFTLTISSVQAEDLAIYYCQNNYNYPFTFGSGTKLEIK
B2: HuAb307-3 (antibody, V domains shown)
VH: EVQLLESGGGLVQPGGSLRLSCAASGFTFSSYTMSWVRQAPGKGLEWVATIIIGGSYTYYADSVKGRFTISRDNSKNTLYLQMNSLRAEDTAVYYCTRLVKGNAMDYWGQGTLVTVSS
VL: DIVMTQSPDSLAVSLGERVTMNCKSSQSLLNSGNQKNYLSWYQQKPGQPPKLLFYWASTRESGVPDRFSGSGSGTDFTLTISSVQAEDVAVYYCQNDYSYPFTFGQGTKLEIK
notes: Humanized, expressed as full-length IgG
B3: 02-0358-h3 (antibody, V domains shown)
VH: EVQLVESGGGLVQPGGSLRLSCAVSGFTFSSFGMHWVRQAPGKGLEWVAYISSGTTNIYYADSVKGRFTVSRDNAKNSLYLQMNSLRAEDTAVYYCVRSGYYGNSLDYWGQGTLVTVSS
VL: DIVMTQSPDSLAVSLGERVTMNCKSSQSLFNSGNQRNYLTWYQQKPGQPPKLLIYWASTRESGVPDRFSGSGSGTDFTLTISSVQAEDVAVYYCQNVYIYPLTFGQGTKLEIK
notes: Humanized IgG
B4: 02-0358-8h antibody (antibody, V domains shown)
VH: EVQLVESGGGLVQPGGSLRLSCAVSGFTFSSFGMHWVRQAPGKGLEWVAYISSGTTNIYYADSVKGRFTVSRDNAKNSLYLQMNSLRAEDTAVYYCVRSGYYGQSLDYWGQGTLVTVSS
VL: DIVMTQSPDSLAVSLGERVTMNCKSSQSLFQSGNQRNYLTWYQQKPGQPPKLLIYWASTRESGVPDRFSGSGSGTDFTLTISSVQAEDVAVYYCQNVYIYPLTFGQGTKLEIK
B5: 02-0358-4h antibody (antibody, V domains shown)
VH: EVQLVESGGGLVQPGGSLRLSCAVSGFTFSSFGMHWVRQAPGKGLEWVAYISSGTTNIYYADSVKGRFTVSRDNAKNSLYLQMNSLRAEDTAVYYCVRSGYYGNSLDYWGQGTLVTVSS
VL: DIVMTQSPDSLAVSLGERVTMNCKSSQSLFQSGNQRNYLTWYQQKPGQPPKLLIYWASTRESGVPDRFSGSGSGTDFTLTISSVQAEDVAVYYCQNVYIYPLTFGQGTKLEIK
B6: 02-0358-7h antibody (antibody, V domains shown)
VH: EVQLVESGGGLVQPGGSLRLSCAVSGFTFSSFGMHWVRQAPGKGLEWVAYISSGTTNIYYADSVKGRFTVSRDNAKNSLYLQMNSLRAEDTAVYYCVRSGYYGSSLDYWGQGTLVTVSS
VL: DIVMTQSPDSLAVSLGERVTMNCKSSQSLFNSGNQRNYLTWYQQKPGQPPKLLIYWASTRESGVPDRFSGSGSGTDFTLTISSVQAEDVAVYYCQNVYIYPLTFGQGTKLEIK
B7: 02-0358-9h antibody (antibody, V domains shown)
VH: EVQLVESGGGLVQPGGSLRLSCAVSGFTFSSFGMHWVRQAPGKGLEWVAYISSGTTNIYYADSVKGRFTVSRDNAKNSLYLQMNSLRAEDTAVYYCVRSGYYGQSLDYWGQGTLVTVSS
VL: DIVMTQSPDSLAVSLGERVTMNCKSSQSLFSSGNQRNYLTWYQQKPGQPPKLLIYWASTRESGVPDRFSGSGSGTDFTLTISSVQAEDVAVYYCQNVYIYPLTFGQGTKLEIK
B8: 02-0358-10h antibody (antibody, V domains shown)
VH: EVQLVESGGGLVQPGGSLRLSCAVSGFTFSSFGMHWVRQAPGKGLEWVAYISSGTTNIYYADSVKGRFTVSRDNAKNSLYLQMNSLRAEDTAVYYCVRSGYYGSSLDYWGQGTLVTVSS
VL: DIVMTQSPDSLAVSLGERVTMNCKSSQSLFQSGNQRNYLTWYQQKPGQPPKLLIYWASTRESGVPDRFSGSGSGTDFTLTISSVQAEDVAVYYCQNVYIYPLTFGQGTKLEIK
B9: 02-0307-h6 (antibody, V domains shown)
VH: EVQLLESGGGLVQPGGSLRLSCAASGFTFSSYTMSWVRQAPGKGLEWVATIIIGGSYTYYADSVKGRFTISRDNSKNTLYLQMNSLRAEDTAVYYCTRLVKGNAMDYWGQGTLVTVSS
VL: DIVMTQSPDSLAVSLGERVTMNCKSSQSLLSSGNQKNYLSWYQQKPGQPPKLLFYWASTRESGVPDRFSGSGSGTDFTLTISSVQAEDVAVYYCQNDYSYPFTFGQGTKLEIK
notes: Humanized IgG (detected with anti-human IgG Fc)
B10: 02-0358-11h antibody (antibody, V domains shown)
VH: EVQLVESGGGLVQPGGSLRLSCAVSGFTFSSFGMHWVRQAPGKGLEWVAYISSGTTNIYYADSVKGRFTVSRDNAKNSLYLQMNSLRAEDTAVYYCVRSGYYGSSLDYWGQGTLVTVSS
VL: DIVMTQSPDSLAVSLGERVTMNCKSSQSLFSSGNQRNYLTWYQQKPGQPPKLLIYWASTRESGVPDRFSGSGSGTDFTLTISSVQAEDVAVYYCQNVYIYPLTFGQGTKLEIK
B11: 02-0358-6h antibody (antibody, V domains shown)
VH: EVQLVESGGGLVQPGGSLRLSCAVSGFTFSSFGMHWVRQAPGKGLEWVAYISSGTTNIYYADSVKGRFTVSRDNAKNSLYLQMNSLRAEDTAVYYCVRSGYYGQSLDYWGQGTLVTVSS
VL: DIVMTQSPDSLAVSLGERVTMNCKSSQSLFNSGNQRNYLTWYQQKPGQPPKLLIYWASTRESGVPDRFSGSGSGTDFTLTISSVQAEDVAVYYCQNVYIYPLTFGQGTKLEIK
B12: Ab 376 (antibody, V domains shown)
VH: DVKLVESGGGLVKPGGSLKLSCAASGFTFSSYTMSWVRQTPEKRLYWVATISSGVSYTYYPDSVKGRFTISRDNAKNTLYLQMSSLKSEDTAMYYCTRLTKGNAMDYWGQGTSVTVSS
VL: DIVMTQSPSSLTVTAGEKVTMSCKSSQSLLNSGNQKNYLTWYQQKPGQPPKLLIYWASTRESGVPDRFTGSGSGTGFTLTISSVQAEDLAVYYCQNDYSYPFTFGAGTKLELK
B13: Ab 384 (antibody, V domains shown)
VH: QVQLQQSGAELARPGASVKLSCKASDYTFTSYVISWVKQRTGQGLEWIGEIYPRNGNTYYNEKFKGKATLTADKSSSTAYMELRSLTSEDSAVYFCARSYYGNSFAYWGQGTLVTVSA
VL: DIVMTQSPSSLTVTAGEKVTMSCKSSQSLLNSGNQKNYLTWYQQRPGQPPKLLIYWASTRESGVPDRFTGSGSGTDFTLTISSVQAEDLAVYCCQNNYYYPFTFGGGTKLGIK
B14: Reference antibody 2 (Benchmark 2-163E12) (antibody, V domains shown)
VH: QVQLQQSGAELARPGASVKLSCKASGYTFTDYYINWVKQRTGQGLEWIGEIYPGSGNTYYNEKFKGKATLTADKSSSTAYMQLSSLTSEDSAVYFCARSYGAFDYWGQGTTLTVSS
VL: DIVMTQSPSSLTVTAGEKVTMSCKSSQSLLNSGNQKNYLTWYQQKPGQPPKLLIYWASTRESGVPDRFTGSGSGTDFTLTISSVQAEDLAVYYCQNDYSYPLTFGAGTKLELK
B15: Ab 392 (antibody, V domains shown)
VH: EVQLQQSGPELVKPGASVKMSCKASGFTFTSYVMHWVKQKSGQGLEWIGYINPYNDDIKYNAKFEDKATLTSDRSSSTAYMELSSLTSDDSAVYFCTRGDYWGQGTTLTVSS
VL: DIVMTQSPSSLTVTTGEKVTMDCKSSQSLLNSGNQKNYLTWYQQKSGQPPKLLIYWASIRKSGVPDRFTGSGSGTDFTLTISSVQAEDLAVYYCLNDYSFPLTFGAGTKLELK

What was measured:
mouse CLDN18.2 = target: T1, mouse CLDN18.2 (mouse, UniProt P56857 10-264, Expressed on HEK293T cells as a fusion to GFP. The GFP is left out of the letters.); assay: FACS dose curve, AF647-labelled IgG on HEK293T mouse CLDN18.2 MP cells
T1 construct: also called mouse CLDN18.2 fused to GFP; not shown: The GFP fused to mouse CLDN18.2, and any linker to it
T1 chain: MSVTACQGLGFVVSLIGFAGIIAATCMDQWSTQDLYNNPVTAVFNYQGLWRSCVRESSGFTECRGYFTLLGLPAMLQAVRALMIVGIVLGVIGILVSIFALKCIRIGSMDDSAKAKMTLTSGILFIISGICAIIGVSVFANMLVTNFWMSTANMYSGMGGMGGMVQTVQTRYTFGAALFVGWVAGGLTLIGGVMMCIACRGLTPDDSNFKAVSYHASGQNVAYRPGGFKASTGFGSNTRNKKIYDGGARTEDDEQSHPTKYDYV

[1] = target: T2, human Claudin-18.2 (CLDN18.2) (human); assay: FACS, 1.5 ug antibody, HEK293T-CLDN18.2 C12 clone cells
T2 construct: On cells: fused to GFP in engineered HEK293T cells (clone C12), endogenous in HUPT4 and SNU601 cells; also called human CLDN18.2

[2] = target: T2, human Claudin-18.2 (CLDN18.2); assay: FACS, 1.5 ug antibody, HUPT4 cells (endogenous CLDN18.2)
Description: FACS assays were carried out to determine relative antigen binding strengths of the humanized antibodies (at either 1.5 μg or 0.3 μg) for binding to CLDN18.2 as expressed by the indicated cancer cell lines.

[3] = target: T2, human Claudin-18.2 (CLDN18.2); assay: KinExA, cell-based; HUPT4, Versene; Error% 3.57; 95% CI 0.31nM - 1.34nM; equilibrium curves 1nM, 20nM
Description: (§1) For each KD measurement, in general, at least two antibody concentration curves were prepared using the same batch of cells (same passage) to avoid changes in expression level from passage to passage. Briefly, either HEK293T CLDN18.2-mGFP C12 cells (engineered overexpression cell line) or HUPT4 cells (native positive cell line) were detached using Versene. Cells were then equilibrated in different concentrations of the antibody solutions, respectively, in 2% FBS/DMEM or 2% FBS/RPMI at 4° C. overnight. Cells concentrations started with 1.8 ×10^7 cells/ml and 2-fold serial dilution was performed to 10 points. In addition, antibody solution only (Signal 100%) and nonspecific binding (NSB) buffer only were included in each curve. Next day, spin the cells at 1500 rpm for 10 mins and saved the supernatant for measurement. […] The KD and antigen expression level were calculated using two antibody curves analyzed by n-curve analysis.

[4] = target: T2, human Claudin-18.2 (CLDN18.2); assay: KinExA, cell-based; HEK293T-CLDN18.2-mGFP C12, Versene; Error% 2.35; 95% CI 2.12nM - 6.47nM; equilibrium curves 500pM, 2nM, 10nM
Description: as §1

[5] = target: T2, human Claudin-18.2 (CLDN18.2); assay: KinExA, cell-based; HUPT4, Versene; Error% 3.73; 95% CI 0.87nM - 3.23nM; equilibrium curves 1nM, 20nM
Description: as §1

[6] = target: T2, human Claudin-18.2 (CLDN18.2); assay: KinExA, cell-based; HEK293T-CLDN18.2-mGFP C12, Versene; Error% 1.84; 95% CI 2.03nM - 4.44nM; equilibrium curves 500pM, 2nM, 10nM
Description: as §1

[7] = target: T2, human Claudin-18.2 (CLDN18.2); assay: flow cytometry; HUPT4 over M202 [Cont.]
Description: (§2) The samples were then measured by Intellicyt® iQue Advanced Flow Cytometry Platform.

[8] = target: T2, human Claudin-18.2 (CLDN18.2); assay: flow cytometry; HEK293T CLDN18.2 over HEK293T parental [Cont.]
Description: as §2

[9] = target: T2, human Claudin-18.2 (CLDN18.2); assay: KinExA, cell-based; HUPT4, Versene; Error% 2.72; 95% CI 0.58nM - 1.43nM; equilibrium curves 1nM, 20nM
Description: as §1

[10] = target: T2, human Claudin-18.2 (CLDN18.2); assay: KinExA, cell-based; HEK293T-CLDN18.2-mGFP C12, Versene; Error% 7.72; 95% CI 0.18nM - 11.91nM; equilibrium curves 500pM and 10nM
Description: as §1

| Binder | binding result (mouse CLDN18.2) | ratio native [7] | ratio OE [8] | also measured |
| --- | --- | --- | --- | --- |
| B1 | no binding (tested: 0.32 nM to 1000 nM) |  |  |  |
| B2 |  |  |  | FACS signal (relative antigen binding strength) [1]: 151000; FACS signal (relative antigen binding strength) [2]: 34000; Kd [3]: 0.69 nM; Kd [4]: 3.65 nM |
| B3 |  |  |  | Kd [5]: 1.7 nM; Kd [6]: 3 nM |
| B4 |  | 57.9 | 229 |  |
| B5 |  | 94 | 575 |  |
| B6 |  | 94.1 | 449 |  |
| B7 |  | 93.4 | 453 |  |
| B8 |  | 54.1 | 274 |  |
| B9 |  | 137 | 482 | Kd [9]: 0.93 nM; Kd [10]: 1.42 nM |
| B10 |  | 88.8 | 456 |  |
| B11 |  | 79.9 | 435 |  |
| B12 | no binding (tested: 0.32 nM to 1000 nM) |  |  |  |
| B13 | no binding (tested: 0.32 nM to 1000 nM) |  |  |  |
| B14 | no binding (tested: 0.32 nM to 1000 nM) |  |  |  |
| B15 | no binding (tested: 0.32 nM to 1000 nM) |  |  |  |
